Laboratory results from PMC7212079.

Molecular target: Hsp32
Assay: native MS

Which stoichiometry N does the source give for Hsp32 (natural protein) here?
Its stoichiometry N is 2.
